# From patent US20180222987A1
# Changes are numbered by the printed parent chain.
# B1: humanized 4B4 Fab 4B4_9 (VL2B / VH2A) (Fab, V domains shown)
# VH: EVQLVETGGGLVQPGGSLKLTCATSGFTFSNAWMHWVRQSPEKGLEWVAQIKARSNNYATYYAESVKGRFTISRDDSKSTIYLQMNSLRAEDTAIYYCRGTYYASKPFDYWGQGVMVTVSS
# VL: DVVMTQTPVSLSVSPGGPVSISCRSSQSLVHDNANTYLSWSLQKPGQSPQVLIYKVSNRFSGVSDRFTGSGSGTDFTLKISRVEPDDLGVYYCGQGTQYPFTFGSGTKLEIK
# B2: humanized 4B4 Fab 4B4_1 (VL1a / VH1B) (Fab, V domains shown)
# VH: B1 VH with E1Q, Q13K, G16Q, E64V, R89T, A90P
# VL: B1 VL with P15V, P18R, A34G, Q47K, Q50K, D65S, R82S, E84Q
# B3: humanized 4B4 Fab 4B4_6 (VL1a / VH1A) (Fab, V domains shown)
# VH: B1 VH with E1Q, Q13K, G16Q, R89T, A90P
# VL: B1 VL with P15V, P18R, A34G, Q47K, Q50K, D65S, R82S, E84Q
# B4: humanized 4B4 Fab 4B4_2 (VL1b / VH1B) (Fab, V domains shown)
# VH: B1 VH with E1Q, Q13K, G16Q, E64V, R89T, A90P
# VL: B1 VL with P15V, P18R, Q47K, Q50K, D65S, R82S, E84Q
# B5: humanized 4B4 Fab 4B4_7 (VL1b / VH1A) (Fab, V domains shown)
# VH: B1 VH with E1Q, Q13K, G16Q, R89T, A90P
# VL: B1 VL with P15V, P18R, Q47K, Q50K, D65S, R82S, E84Q
# B6: humanized 4B4 Fab 4B4_5 (VL2C / VH6D) (Fab, V domains shown)
# VH: QVQLVESGGGVVQPGRSLRLSCATSGFTFSNAWMHWVRQAPGKQLEWVAQIKARSNNYATYYADSVKGRFTISRDDSKSTIYLQMNSLRAEDTAVYYCRGTYYASKPFDYWGQGTLVTVSS
# VL: DIVMTQTPLSLSVTPGQPASISCKSSQSLVHDNGNTYLSWSLQKPGQSPQVLIYKVSNRFSGVPDRFSGSGSGTDFTLKISRVEAEDVGVYYCGQGTQYPFTFGSGTKLEIK
# B7: humanized 4B4 Fab 4B4_11 (VL1_CM3 / VH6_BM2) (Fab, V domains shown)
# VH: B6 VH with G10R, S21T, T24A, D64E, L116T
# VL: B6 VL with I2V, T7S, P15L, A19V, K24R, G34A, K44R, Q50R
# B8: humanized 4B4 Fab 4B4_10 (VL1_CM2 / VH6_BM2) (Fab, V domains shown)
# VH: B6 VH with G10R, S21T, T24A, D64E, L116T
# VL: B6 VL with I2V, T7S, P15L, A19V, K24R, K44R, Q50R
# B9: 18H11-F10 anti-CD3 antibody (antibody, V domains shown)
# VH: EVQLVESGGGLVQPGRSLKLSCAASGFIFSDYYMAWVRQAPKKGLEWVATISISGSRTYYPDSVKGRFTVSRDNAKSSLYLQMNSLKSEDTATYYCATNNPGGWFVYWGQGTLVTVSS
# VL: NIQMTQSPSLLSASVGDRVTLSCKAGQNINNDLAWYQQKLGEAPRLLIYNANSLQTGIPSRFSGSGSGADFTLTISSLQPEDVATYFCQQYSSGDTFGAGTKLELK
# B10: 11F9-F8 anti-CD3 antibody (antibody, V domains shown)
# VH: EVQLVETGGTLVQPGKSLKLTCATSGFTFSNAWMHWVRQSPEKQLEWVAQIKAKSNNYATYYAESVKGRFTISRDDSKTSVYLQLNSLREEDTAIYYCRGTQYGYNPFDYWGQGVMVTVSS
# VL: B1 VL with M4L, P15L, P18Q, D32N, A34G, V63I, D65N, T68S, T97A, Q98H
# B11: 18G9-H11 anti-CD3 antibody (antibody, V domains shown)
# VH: EVQLVETGGSLVQPGKSLKLTCATSGFTFSNAWIQWVRQSPEKQLEWVAQIKAKSNNYATYYAESVKGRFTISRDDSKSSVYLQMNSLKEEDTALYYCTWRHYYSSHTMDAWGQGTLVTVSS
# VL: DVVMTQTPVSLSVSLGGQVSISCRSSQSLVHNNGNTYLSWYLQKPGQSPQLLIYKVSNRFSGISDRFSGSGSGTDFTLKISRVAPTDLGVYYCGQGSQYPFTFGAGTKLELK
# B12: 13C1-F6 anti-CD3 antibody (antibody, V domains shown)
# VH: B10 VH
# VL: DVVMTQSPVSLSVSLGGQVSISCRSSQSLVHNNGNTYLSWYLQRSGQSPQLLIYKVSNRLSGISDRFSGSGSGTDFTLKISRIEPDDLGVYYCGQGTQYPFTFGSGTRLEIK
# B13: 5B1-G2 anti-CD3 antibody (antibody, V domains shown)
# VH: EVQVVETGGSLVQPGKSLKLTCATSGFSFSNAWMHWVRQSPEKQLEWVAQIKDKANNYATYYAESVKGRFTISRDDSKGSIYLQMNSLKEEDTAVYYCRGLYYGLFPSDYWGQGVMVTVSS
# VL: B12 VL with S7T, Q43L, R44K, S45P, L60F, S70G, I83L, V90I, R108K
# B14: 11F3-B9 anti-CD3 antibody (antibody, V domains shown)
# VH: EVQLVETGGSLVQPGKSLTLTCATSGFTFSNAWMHWVRQSPEKQLEWVAQIKAKSNNYATYYAESVKGRFTISRDDSKRSVYLQMNSLKEEDTAIYYCRYVNYGLAPMDVWGQGTSVTVSS
# VL: B11 VL with N32D, I63F, A84E, T86D, S97T
# B15: 11D7-C3 anti-CD3 antibody (antibody, V domains shown)
# VH: B13 VH with V4F, S28T, D53A, A55S, G79S, I81V, V95T, F106S
# VL: B11 VL with A84E, T86D, S97T, Q98H, A105S, L111I
# B16: 10F4-C10 anti-CD3 antibody (antibody, V domains shown)
# VH: EVQLVETGGSLVQPGKSLKITCATSGFTFSNAWMHWVRQSPEKQLEWVAQIKAKSNNYATYYAESVKGRFTISRDDSKSSIYLQMNSLKEEDTAIYYCRAVNYGNYPLDYWGQGVMVTVSS
# VL: B11 VL with Y41C, A84E, T86D, S97T
# B17: 10E6-G6 anti-CD3 antibody (antibody, V domains shown)
# VH: B10 VH with T10G, P14S, F29V, S30T, A59E, T79S, L85M, R89K
# VL: B12 VL with N35Y, R44K, S45P, L51V, L52F, L60F, Q98H, R108K
# B18: 16F8-A7 anti-CD3 antibody (antibody, V domains shown)
# VH: VETGGNLVQPGKSLKLTCATSGFTFSNAWMHWVRQSPEKQLEWVAQIKAKSNNYATYYAESVKGRFTISRDDSKSSVYLQMNSLKEEDTAIYYCRYVNYGLAPMDVWGQGTSVTVSS
# VL: B11 VL with I63F, A84E, T86D, S97T
# B19: 4B4-D7 anti-CD3 antibody (antibody, V domains shown)
# VH: B1 VH with G10R, G16R, G44Q, R89K, A90E
# VL: B1 VL with P15L, P18Q, A34G, K44R, V63T
# B20: 12G3-E8 anti-CD3 antibody (antibody, V domains shown)
# VH: EVRVVETGGSLVQPGKSLKLTCATSGFTFSLAWMHWVRQSPEKKLEWVAQIKDKANNYATYYAESVKGRFTISRDDSKRSVYLQMNRLKEEDTAIYYCRGVYYGFSMTPFDYWGQGVMVTVSS
# VL: B11 VL with V3A, L51V, T74A, A84E, T86D, S97T
# B21: 3H6-D2 anti-CD3 antibody (antibody, V domains shown)
# VH: EVQLVETGGRLVQPGKSLKLTCATSGFTFSNAWMHWVRQSPEKQLEWVAQIKDKSNNYATYYAESVKGRFTISRDDSKSIIYLQMNSLKEEDTAIYYCRALTYYGYKRDAMDGWGHGTSVTVSS
# VL: B11 VL with A84E, T86D, S97T
# B22: 4E7-C9 anti-CD3 antibody (antibody, V domains shown)
# VH: EVQVVETGGSLVQPGKSLKLTCATSGFTFSNAWMHWVRQSPEKQLEWVAQIKDKSNNYATYYAESLKGRFTISRDDPKRSIYLQMNSLREEDTAIYYCRYVHYGIGYAMDAWGQGTSVTVSS
# VL: B11 VL with V30E, L51P, A84E, T86D, S97T, A105P
# B23: 20E5-F10 anti-CD3 antibody (antibody, V domains shown)
# VH: EVQLVETGENLVQPGKSLRLTCATSGFSFSNAWMHWIRQSPEKQLEWVAQIKDKSNNYATYYAESVNGRFTISRDDSKSSIYLHMDNLKEEDSAIYYCRYVHYGVRFFYTMDVWGQGTSVTVSS
# VL: B11 VL with G17D, S25P, Q50H, L51P, A84E, T86D, S97T, A105S, L111I
# B24: 6C9-C9 anti-CD3 antibody (antibody, V domains shown)
# VH: AVQLVESGGGLVRPKESLKISCAASGFTFRNAAMYWVRQAPGKGLEWVARIRTQPNNYAKYYADSVKDRFTISRDDSKSMVYLQMDNLKTEDTAMYYCTGLVVTAMDAWGQGTSVTVSS
# VL: DIQMTQSPSFLSASVGDRVTINCKASQNINKYLNWYQQKLGEAPKLLIYVTNNLQTGIPSRFSGSGSGTDYTLTISSLQPEDVATYFCLQHRSMYTFGTGTKLELK
# B25: 12D2-E5 anti-CD3 antibody (antibody, V domains shown)
# VH: EVKLVESGGGLVQPGRSLRLSCAASGFNFYAYWMGWVRQAPGKGLEWIGEIKKDGTTINYTPSLKDRFTISRDNAQNTLYLQMTKLGSEDTALYYCAREERDGYFDYWGQGVMVTVSS
# VL: QFVLTQPNSVSTNLGSTVKLSCKRSTGNIGSNYVNWYQQHEGRSPTTMIYRDDKRPDGVPDRFSGSIDRSSNSALLTINNVQTEDEADYFCQSYSSGIVFGGGTKLTVL
# B26: 8H2-F3 anti-CD3 antibody (antibody, V domains shown)
# VH: QIQLVQSGPELKKPGESVKISCKASGYTFTDFAMNWVKQAPGNGLKWMGWINTQTGKPTYADGFKQRFVFSLETSASTIYLQINNLNIEDTATYFCTRGALASVGQGVMVTVSS
# VL: DVVMTQTPVSLSVAIGQPASISCKSSQSLVGTSGKTYLNWLLQRPGQSPKRLIYLVSKLDSGIPDRFSGSGSETDFTLKISRVETDDLGVYYCLQGSHFPLTFGSGTKLEIK
# B27: 13H2-C3 anti-CD3 antibody (antibody, V domains shown)
# VH: B14 VH with V2E, Q3E, T19K, E42D, R79S, S87N, N102H, V110A
# VL: B11 VL with P45A, T77I, A84E, T86D, Y91F, S97T
# Target: Macaca fascicularis CD3ε/δ-Fc fusion heterodimer (Macaca fascicularis) (UniProt Q95LI8)
# Assay: SPR Biacore, Fab; unit inferred
# Macaca fascicularis CD3ε/δ-Fc fusion heterodimer (Macaca fascicularis), sequence (chain, as listed by the source mutant, chain 1 of 2): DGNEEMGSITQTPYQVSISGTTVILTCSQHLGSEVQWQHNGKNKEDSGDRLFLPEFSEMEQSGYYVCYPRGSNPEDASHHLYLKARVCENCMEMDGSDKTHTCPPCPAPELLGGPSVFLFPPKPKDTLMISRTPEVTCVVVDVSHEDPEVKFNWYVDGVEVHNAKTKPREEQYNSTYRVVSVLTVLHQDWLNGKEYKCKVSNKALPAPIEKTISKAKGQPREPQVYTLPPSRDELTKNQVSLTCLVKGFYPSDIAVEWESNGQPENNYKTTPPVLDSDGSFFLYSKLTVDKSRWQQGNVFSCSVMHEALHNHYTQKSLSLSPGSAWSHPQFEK
# Macaca fascicularis CD3ε/δ-Fc fusion heterodimer (Macaca fascicularis), sequence (Q95LI8 22-105, stated change not applied, chain 2 of 2): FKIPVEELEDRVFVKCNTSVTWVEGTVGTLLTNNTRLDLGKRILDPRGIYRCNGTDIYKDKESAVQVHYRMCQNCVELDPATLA
row,Kd,Binder
1,12.1 nM,B1
2,3.13 nM,B2
3,1.19 nM,B3
4,7.57 nM,B4
5,7.28 nM,B5
6,16.6 nM,B6
7,20.4 nM,B7
8,8.94 nM,B8

# Target: Macaca fascicularis CD3ε/δ-Fc fusion heterodimer (Macaca fascicularis) (UniProt Q95LI8)
# Assay: SPR single point, hybridoma supernatant
row,RU at 25 nM,Binder
1,55 RU,B9
2,16 RU,B10
3,-7 RU,B11
4,15.5 RU,B12
5,0.5 RU,B13
6,17 RU,B14
7,10 RU,B15
8,27 RU,B16
9,0 RU,B17
10,22.5 RU,B18
11,14 RU,B19
12,17 RU,B20
13,7 RU,B21
14,10 RU,B22
15,8 RU,B23
16,32 RU,B24
17,5 RU,B25
18,40 RU,B26
19,7 RU,B27
